Reference: patent publication US20160184455A1

Biological target: MaxiK channel of rat bladder detrusor smooth muscle (endogenous) (rat) (UniProt Q62976)
Experiment: cell-based or functional assay

Sequence of UniProt Q62976 (Q62976 whole entry): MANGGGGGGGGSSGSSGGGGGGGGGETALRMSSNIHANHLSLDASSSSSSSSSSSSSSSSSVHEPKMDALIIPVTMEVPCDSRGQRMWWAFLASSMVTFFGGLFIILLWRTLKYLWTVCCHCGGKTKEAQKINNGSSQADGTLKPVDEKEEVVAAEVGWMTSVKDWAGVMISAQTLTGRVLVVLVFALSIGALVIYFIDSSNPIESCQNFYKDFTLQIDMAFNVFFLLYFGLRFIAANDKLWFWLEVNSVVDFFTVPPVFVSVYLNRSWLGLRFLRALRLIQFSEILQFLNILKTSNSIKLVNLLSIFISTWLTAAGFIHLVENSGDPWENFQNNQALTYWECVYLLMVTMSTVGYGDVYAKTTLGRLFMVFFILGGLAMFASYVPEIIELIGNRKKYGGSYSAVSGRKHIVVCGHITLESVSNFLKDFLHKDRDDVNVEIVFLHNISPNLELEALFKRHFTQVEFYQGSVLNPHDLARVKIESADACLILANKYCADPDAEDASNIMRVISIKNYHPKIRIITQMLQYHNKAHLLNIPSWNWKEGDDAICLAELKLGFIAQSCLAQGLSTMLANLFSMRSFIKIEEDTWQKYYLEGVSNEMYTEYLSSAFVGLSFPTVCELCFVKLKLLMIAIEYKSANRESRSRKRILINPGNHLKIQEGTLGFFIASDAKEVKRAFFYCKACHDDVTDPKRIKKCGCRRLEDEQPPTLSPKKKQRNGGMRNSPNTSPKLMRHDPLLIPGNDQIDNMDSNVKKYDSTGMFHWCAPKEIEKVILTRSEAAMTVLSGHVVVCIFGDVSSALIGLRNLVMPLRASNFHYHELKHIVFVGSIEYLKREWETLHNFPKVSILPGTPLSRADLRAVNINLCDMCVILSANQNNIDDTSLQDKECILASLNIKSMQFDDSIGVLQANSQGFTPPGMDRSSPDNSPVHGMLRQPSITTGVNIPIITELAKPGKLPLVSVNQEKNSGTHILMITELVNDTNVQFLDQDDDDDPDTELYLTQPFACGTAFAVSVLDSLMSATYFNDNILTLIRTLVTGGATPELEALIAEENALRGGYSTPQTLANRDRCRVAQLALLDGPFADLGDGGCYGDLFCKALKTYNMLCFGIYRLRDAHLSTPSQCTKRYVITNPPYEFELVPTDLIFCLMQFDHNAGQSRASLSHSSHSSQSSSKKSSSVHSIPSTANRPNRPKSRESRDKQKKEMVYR

iberiotoxin (IBTX) (from UniProt P24663 1-37) (peptide)
outward current in response to applied voltage, single whole cell patch clamp of detrusor cells before and after 300 nM IBTX: > 50%
